Results on 167 variants are retold here after the RNAGym collection of RNA variant scans (doi:10.7554/elife.90254).

First the molecules themselves.
B1: LINE1-mini (parent)
chain: GGCAGAGCUCAACACAGCGUGGCAAAGUGGCUGUGGCUAGACUGCC

The data set covers variants of B1. Briefly: self-cleavage, relative activity (ratio to wild type); higher = more cleavage; in vitro, sequencing; the parent is a self-cleaving ribozyme.
Regarding G19C C37U, the self-cleavage worked out at 0.03.

Turning to G19C C37A, the self-cleavage was 0.04.

G19C C37G: the self-cleavage came out at 0.02.

Take C18G A41G: the self-cleavage was determined as 0.08.

Regarding C18G A41U, the self-cleavage worked out at 0.32.

Regarding C18G A41C, the self-cleavage was 0.03.

Turning to G19C U28C, the self-cleavage was 0.6.

For G19C U28A, the self-cleavage is 1.2.

With G19C U28G, the self-cleavage is 0.37.

Take G19A G22U: the self-cleavage was 0.99.

For G19A G22A, the self-cleavage was determined as 0.62.

In the case of G19A G22C, the self-cleavage was 0.71.

For the variant G19C U38C, the self-cleavage is 0.28.

As for G19C U38A, the self-cleavage worked out at 0.05.

Regarding G19C U38G, the self-cleavage came out at 0.01.

Consider C18G G35A, for which the self-cleavage was found to be 0.07.

As to C18G G35U, the self-cleavage came to 0.08.

Consider G19A A41C, for which the self-cleavage stood at 0.08.

As to G19A A41G, the self-cleavage came out at 0.29.

As for G19A A41U, the self-cleavage amounted to 0.77.

In the case of C18U U38A, the self-cleavage worked out at 0.75.

C18U U38G: the self-cleavage turned out to be 0.01.

For the variant C18U U38C, the self-cleavage was 0.27.

Take C18U A26U: the self-cleavage was 1.72.

Regarding C18U A26G, the self-cleavage stood at 0.65.

For the variant C18U A26C, the self-cleavage was 1.39.

C18U G22U: the self-cleavage was determined as 1.21.

Regarding C18U G22A, the self-cleavage is 1.76.

As for C18U G22C, the self-cleavage came to 1.47.

As for G19C A39G, the self-cleavage was 0.02.

Regarding G19C A39U, the self-cleavage worked out at 0.28.

With G19C A39C, the self-cleavage was determined as 0.05.

For the variant C18U G29A, the self-cleavage was determined as 1.77.

For the variant C18U G29C, the self-cleavage turned out to be 0.86.

For the variant C18U G29U, the self-cleavage worked out at 1.87.

G19A G33A: the self-cleavage was found to be 0.11.

With G19A G33U, the self-cleavage worked out at 0.15.

With G19A G33C, the self-cleavage came to 0.05.

As for G19C G22U, the self-cleavage worked out at 0.51.

For the variant G19C G22A, the self-cleavage stood at 0.39.

In the case of G19C G22C, the self-cleavage turned out to be 0.32.

Turning to C18G U20A, the self-cleavage came out at 0.41.

As for C18G U20G, the self-cleavage stood at 0.41.

As for C18G U20C, the self-cleavage came to 0.4.

On to C18U C37A, for which the self-cleavage was determined as 0.09.

Regarding C18U C37U, the self-cleavage is 0.07.

Turning to C18U C37G, the self-cleavage came out at 0.04.

For G19A G27U, the self-cleavage was 0.93.

On to G19A G27C, for which the self-cleavage was 0.53.

As for G19A G27A, the self-cleavage amounted to 1.19.

Turning to G19A U28C, the self-cleavage came to 0.51.

Turning to G19A U28G, the self-cleavage is 1.04.

With G19A U28A, the self-cleavage came out at 1.57.

For G19U A24C, the self-cleavage came out at 0.73.

For the variant G19U A24G, the self-cleavage is 0.45.

With G19U A24U, the self-cleavage was found to be 0.81.

Regarding C18U G21C, the self-cleavage is 1.13.

Turning to C18U G21U, the self-cleavage turned out to be 2.05.

For C18U G21A, the self-cleavage was found to be 2.7.

Regarding G19A U20G, the self-cleavage was found to be 0.59.

In the case of G19A U20C, the self-cleavage worked out at 0.46.

Turning to G19A U20A, the self-cleavage is 0.51.

On to G19C G29A, for which the self-cleavage is 0.92.

On to G19C G29C, for which the self-cleavage turned out to be 0.54.

Turning to G19C G29U, the self-cleavage worked out at 0.54.

On to G19A A24C, for which the self-cleavage came to 0.61.

On to G19A A24U, for which the self-cleavage stood at 2.05.

Turning to G19A A24G, the self-cleavage stood at 1.45.

Regarding C18G G36A, the self-cleavage was determined as 0.1.

With C18G G36U, the self-cleavage is 0.07.

As to C18G G36C, the self-cleavage came out at 0.08.

As to G19C G33A, the self-cleavage came out at 0.15.

In the case of G19C G33U, the self-cleavage is 0.34.

Consider G19C G33C, for which the self-cleavage came to 0.12.

As for G19C C45G, the self-cleavage worked out at 0.17.

For G19C C45A, the self-cleavage came to 0.47.

Turning to G19C C45U, the self-cleavage was determined as 0.79.

Regarding G19A U38A, the self-cleavage came out at 0.82.

Consider G19A U38G, for which the self-cleavage is 0.02.

For G19A U38C, the self-cleavage amounted to 1.09.

For the variant C18G C37G, the self-cleavage is 0.06.

For C18G C37U, the self-cleavage stood at 0.09.

For C18G C37A, the self-cleavage stood at 0.07.

Regarding G19A A25C, the self-cleavage was determined as 1.21.

Consider G19A A25G, for which the self-cleavage was found to be 0.58.

Consider G19A A25U, for which the self-cleavage was 1.66.

As for C18U C45A, the self-cleavage amounted to 0.79.

Consider C18U C45U, for which the self-cleavage was 1.45.

For the variant C18U C45G, the self-cleavage was 0.27.

Turning to C18U G19A, the self-cleavage amounted to 1.13.

Consider C18U G19C, for which the self-cleavage came to 0.56.

Take C18U G19U: the self-cleavage was 1.14.

As for G19A U32A, the self-cleavage is 0.15.

Consider G19A U32C, for which the self-cleavage is 0.12.

Take G19A U32G: the self-cleavage stood at 0.1.

Consider C18G U34C, for which the self-cleavage was found to be 0.03.

Turning to C18G U34G, the self-cleavage amounted to 0.02.

C18G U34A: the self-cleavage came to 0.05.

G19C U34G: the self-cleavage turned out to be 0.14.

Consider G19C U34A, for which the self-cleavage was found to be 0.28.

Regarding G19C U34C, the self-cleavage worked out at 1.22.

Consider C18G C42G, for which the self-cleavage was determined as 0.04.

C18G C42U: the self-cleavage amounted to 0.05.

As for C18G C42A, the self-cleavage was determined as 0.07.

As for G19C U32C, the self-cleavage is 0.14.

Take G19C U32A: the self-cleavage turned out to be 0.16.

Regarding G19C U32G, the self-cleavage turned out to be 0.43.

Turning to C18U C23G, the self-cleavage was determined as 1.56.

C18U C23U: the self-cleavage was found to be 1.07.

C18U C23A: the self-cleavage was 1.27.

G19C C31G: the self-cleavage stood at 1.26.

With G19C C31A, the self-cleavage is 0.63.

G19C C31U: the self-cleavage was determined as 0.58.

For G19C G36C, the self-cleavage was found to be 0.05.

Regarding G19C G36U, the self-cleavage came out at 0.06.

Consider G19C G36A, for which the self-cleavage was determined as 0.09.

Consider G19A G21C, for which the self-cleavage is 0.39.

On to G19A G21A, for which the self-cleavage turned out to be 2.83.

G19A G21U: the self-cleavage turned out to be 0.72.

On to G19C C23G, for which the self-cleavage is 0.42.

Turning to G19C C23U, the self-cleavage stood at 0.83.

With G19C C23A, the self-cleavage came to 0.37.

With C18G U38C, the self-cleavage worked out at 0.16.

In the case of C18G U38A, the self-cleavage is 0.38.

Take C18G U38G: the self-cleavage was determined as 0.02.

For the variant G19A G30U, the self-cleavage turned out to be 2.03.

With G19A G30C, the self-cleavage was 1.5.

As for G19A G30A, the self-cleavage turned out to be 1.99.

G19A G35U: the self-cleavage was 0.14.

Turning to G19A G35C, the self-cleavage was 0.21.

Regarding G19A G35A, the self-cleavage was found to be 0.18.

Consider C18U C42U, for which the self-cleavage worked out at 0.17.

Take C18U C42A: the self-cleavage is 0.09.

Turning to C18U C42G, the self-cleavage amounted to 0.05.

For G19A C37A, the self-cleavage was 0.07.

Take G19A C37G: the self-cleavage was found to be 0.03.

Consider G19A C37U, for which the self-cleavage was 0.05.

Turning to C18G A26U, the self-cleavage came to 0.42.

Take C18G A26G: the self-cleavage turned out to be 0.22.

C18U G27U: the self-cleavage amounted to 1.63.

For C18U G27A, the self-cleavage is 0.84.

On to C18U G27C, for which the self-cleavage is 0.55.

With C18G U32G, the self-cleavage is 0.06.

Consider C18G U32C, for which the self-cleavage came out at 0.15.

As for C18G U32A, the self-cleavage was 0.05.

In the case of G19A G29U, the self-cleavage is 0.94.

For G19A G29A, the self-cleavage came to 1.14.

In the case of G19A G29C, the self-cleavage was 1.31.

Regarding G19C C42G, the self-cleavage is 0.01.

Consider G19C C42A, for which the self-cleavage stood at 0.14.

As to G19C C42U, the self-cleavage worked out at 0.25.

For G19C G40C, the self-cleavage turned out to be 0.06.

Take G19C G40A: the self-cleavage is 0.06.

G19C G40U: the self-cleavage was 0.08.

G19A C42U: the self-cleavage came out at 0.43.

In the case of G19A C42G, the self-cleavage was determined as 0.04.

Regarding G19A C42A, the self-cleavage was 0.34.

Regarding G19A C23A, the self-cleavage stood at 0.96.

In the case of G19A C23G, the self-cleavage amounted to 0.41.

G19A C23U: the self-cleavage was 1.06.

With C18G G33A, the self-cleavage was found to be 0.04.

In the case of C18G G33C, the self-cleavage worked out at 0.03.

For C18G G33U, the self-cleavage is 0.07.

As for C18G C45A, the self-cleavage came to 0.26.

As for C18G C45G, the self-cleavage came to 0.09.

On to C18G C45U, for which the self-cleavage is 0.13.

On to G19C U43A, for which the self-cleavage is 0.02.
